Reference: paper PMC10091538, “The H2TH-like motif of the Escherichia coli multifunctional protein KsgA is required for DNA binding involved in DNA repair and the suppression of mutation frequencies”

What was measured:
Assay in all cases: EMSA; 100 pmol protein, 10 fmol DNA, 500 ng calf thymus DNA; EMSA, 10 ul, 4 C, 60 min: 25 mM Tris-HCl pH 8.0, 500 uM DTT, 500 uM EDTA, 10% glycerol, 25 mM NaCl, 25 mM KCl, 10 uM ZnCl2, 125 uM each dNTP, 4 mM spermidine, 500 ng calf thymus DNA, 10 fmol 32P-dsDNA, 100 pmol protein; 12% PAGE
Conditions in all cases: protein: recombinant; tags: His (pET21a(+), BamHI/XhoI); label: 5'-32P
His-KsgA (1-213) = target: T1, His-KsgA (1-213) (Escherichia coli, UniProt P06992 1-213, del214-273)
T1 sequence: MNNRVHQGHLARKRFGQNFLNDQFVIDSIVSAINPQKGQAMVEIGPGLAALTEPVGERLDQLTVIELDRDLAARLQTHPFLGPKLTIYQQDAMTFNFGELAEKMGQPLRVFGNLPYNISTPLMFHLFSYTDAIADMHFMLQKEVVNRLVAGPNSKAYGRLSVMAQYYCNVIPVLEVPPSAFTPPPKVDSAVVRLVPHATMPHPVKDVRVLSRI

His-KsgA (1-273) = target: T2, His-KsgA (1-273) (Escherichia coli, UniProt P06992 1-273)
T2 sequence: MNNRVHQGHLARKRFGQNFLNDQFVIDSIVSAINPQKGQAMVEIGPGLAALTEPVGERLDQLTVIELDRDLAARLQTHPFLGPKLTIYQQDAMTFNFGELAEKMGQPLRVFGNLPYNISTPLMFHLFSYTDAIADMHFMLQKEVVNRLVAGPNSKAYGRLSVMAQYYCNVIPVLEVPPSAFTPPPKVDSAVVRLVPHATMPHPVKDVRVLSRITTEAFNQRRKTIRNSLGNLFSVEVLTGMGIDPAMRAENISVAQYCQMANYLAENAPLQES

His-KsgA (9-273) = target: T3, His-KsgA (9-273) (Escherichia coli, UniProt P06992 9-273, del1-8)
T3 sequence: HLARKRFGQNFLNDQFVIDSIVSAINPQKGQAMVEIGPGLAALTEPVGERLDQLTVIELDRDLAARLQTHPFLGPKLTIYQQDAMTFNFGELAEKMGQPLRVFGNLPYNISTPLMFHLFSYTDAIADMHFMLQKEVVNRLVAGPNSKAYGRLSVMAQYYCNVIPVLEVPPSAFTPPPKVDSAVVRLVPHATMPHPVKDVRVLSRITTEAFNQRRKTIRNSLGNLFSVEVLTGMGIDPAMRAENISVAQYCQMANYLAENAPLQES

B1: 5-ohC/G duplex (dsDNA)
DNA 1: GAACTAGTGCATCCCCCGGGCTGC
DNA 2: GCAGCCCGGGGGATGCACTAGTTC
modifications: 5-hydroxycytosine (5-ohC) opposite G
binding result (His-KsgA (1-213)): no binding | binding result (His-KsgA (1-273)): binds | binding result (His-KsgA (9-273)): binds

B2: 5-foU/C duplex (dsDNA)
DNA 1: GGTACCTTCAGTCGACC
DNA 2: GGTCGACTUAAGGTACC
modifications: 5-formyluracil (5-foU) opposite C
binding result (His-KsgA (1-273)): binds | binding result (His-KsgA (9-273)): binds

B3: 5-ohC/A duplex (dsDNA)
DNA 1: GAACTAGTGCATCCCCCGGGCTGC
DNA 2: GCAGCCCGGGGGATACACTAGTTC
modifications: 5-hydroxycytosine (5-ohC) opposite A
binding result (His-KsgA (1-213)): no binding | binding result (His-KsgA (1-273)): binds | binding result (His-KsgA (9-273)): binds

B4: 5-ohC/T duplex (dsDNA)
DNA 1: GAACTAGTGCATCCCCCGGGCTGC
DNA 2: GCAGCCCGGGGGATTCACTAGTTC
modifications: 5-hydroxycytosine (5-ohC) opposite T
binding result (His-KsgA (1-213)): no binding | binding result (His-KsgA (1-273)): binds | binding result (His-KsgA (9-273)): binds

B5: Tg/C duplex (dsDNA)
DNA 1: GCTGCCCGGGGGTTCCTCTTGTTC
DNA 2: GAACAAGAGTAACCCCCGGGCAGC
modifications: thymine glycol (Tg) opposite C
binding result (His-KsgA (1-213)): no binding | binding result (His-KsgA (1-273)): binds | binding result (His-KsgA (9-273)): binds

B6: 5-ohC/C duplex (dsDNA)
DNA 1: GAACTAGTGCATCCCCCGGGCTGC
DNA 2: GCAGCCCGGGGGATCCACTAGTTC
modifications: 5-hydroxycytosine (5-ohC) opposite C
binding result (His-KsgA (1-213)): no binding | binding result (His-KsgA (1-273)): binds | binding result (His-KsgA (9-273)): binds
